Data published in IntAct's records for PubMed 29467281.

B1: Unconventional myosin-VI (Homo sapiens), Q9UM54-1 (parent)
chain: MEDGKPVWAPHPTDGFQMGNIVDIGPDSLTIEPLNQKGKTFLALINQVFPAEEDSKKDVEDNCSLMYLNEATLLHNIKVRYSKDRIYTYVANILIAVNPYFDIPKIYSSEAIKSYQGKSLGTRPPHVFAIADKAFRDMKVLKMSQSIIVSGESGAGKTENTKFVLRYLTESYGTGQDIDDRIVEANPLLEAFGNAKTVRNNNSSRFGKFVEIHFNEKSSVVGGFVSHYLLEKSRICVQGKEERNYHIFYRLCAGASEDIREKLHLSSPDNFRYLNRGCTRYFANKETDKQILQNRKSPEYLKAGSMKDPLLDDHGDFIRMCTAMKKIGLDDEEKLDLFRVVAGVLHLGNIDFEEAGSTSGGCNLKNKSAQSLEYCAELLGLDQDDLRVSLTTRVMLTTAGGTKGTVIKVPLKVEQANNARDALAKTVYSHLFDHVVNRVNQCFPFETSSYFIGVLDIAGFEYFEHNSFEQFCINYCNEKLQQFFNERILKEEQELYQKEGLGVNEVHYVDNQDCIDLIEAKLVGILDILDEENRLPQPSDQHFTSAVHQKHKDHFRLTIPRKSKLAVHRNIRDDEGFIIRHFAGAVCYETTQFVEKNNDALHMSLESLICESRDKFIRELFESSTNNNKDTKQKAGKLSFISVGNKFKTQLNLLLDKLRSTGASFIRCIKPNLKMTSHHFEGAQILSQLQCSGMVSVLDLMQGGYPSRASFHELYNMYKKYMPDKLARLDPRLFCKALFKALGLNENDYKFGLTKVFFRPGKFAEFDQIMKSDPDHLAELVKRVNHWLTCSRWKKVQWCSLSVIKLKNKIKYRAEACIKMQKTIRMWLCKRRHKPRIDGLVKVGTLKKRLDKFNEVVSVLKDGKPEMNKQIKNLEISIDTLMAKIKSTMMTQEQIQKEYDALVKSSEELLSALQKKKQQEEEAERLRRIQEEMEKERKRREEDEKRRRKEEEERRMKLEMEAKRKQEEEERKKREDDEKRIQAEVEAQLARQKEEESQQQAVLEQERRDRELALRIAQSEAELISDEAQADLALRRNDGTRPKMTPEQMAKEMSEFLSRGPAVLATKAAAGTKKYDLSKWKYAELRDTINTSCDIELLAACREEFHRRLKVYHAWKSKNKKRNTETEQRAPKSVTDYDFAPFLNNSPQQNPAAQIPARQREIEMNRQQRFFRIPFIRPADQYKDPQSKKKGWWYAHFDGPWIARQMELHPDKPPILLVAGKDDMEMCELNLEETGLTRKRGAEILPRQFEEIWERCGGIQYLQNAIESRQARPTYATAMLQSLLK
partner: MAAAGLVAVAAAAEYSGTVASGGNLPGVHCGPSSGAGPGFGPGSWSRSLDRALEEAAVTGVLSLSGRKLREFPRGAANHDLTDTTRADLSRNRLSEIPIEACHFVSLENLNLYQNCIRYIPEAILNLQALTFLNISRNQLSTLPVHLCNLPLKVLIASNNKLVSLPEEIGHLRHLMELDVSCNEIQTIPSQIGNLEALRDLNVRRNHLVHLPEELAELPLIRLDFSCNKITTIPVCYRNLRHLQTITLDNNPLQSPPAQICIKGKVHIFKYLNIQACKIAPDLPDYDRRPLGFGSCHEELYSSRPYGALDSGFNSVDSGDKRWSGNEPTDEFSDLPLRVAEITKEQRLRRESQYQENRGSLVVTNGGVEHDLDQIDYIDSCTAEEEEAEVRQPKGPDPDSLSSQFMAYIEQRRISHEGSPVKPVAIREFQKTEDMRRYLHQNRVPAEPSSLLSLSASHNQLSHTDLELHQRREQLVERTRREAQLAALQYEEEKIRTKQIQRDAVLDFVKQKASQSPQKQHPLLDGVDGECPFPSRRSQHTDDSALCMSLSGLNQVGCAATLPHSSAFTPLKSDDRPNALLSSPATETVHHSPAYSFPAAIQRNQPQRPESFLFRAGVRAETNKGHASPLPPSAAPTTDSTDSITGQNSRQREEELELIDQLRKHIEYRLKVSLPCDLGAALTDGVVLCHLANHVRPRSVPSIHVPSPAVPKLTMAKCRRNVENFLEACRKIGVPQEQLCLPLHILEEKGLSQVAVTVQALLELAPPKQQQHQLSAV

Variants of: B1
Conditions: with lrch3_human LRCH3, Q96II8

effect of a mutation on the interaction	Variant
disrupting interaction strength	W1192L
disrupting interaction strength	R1107A;R1108A;L1109A
